According to patent US20210188980A1 (SHANGHAI EPIMAB BIOTHERAPEUTICS, published 2021):
Changes are numbered by the printed parent chain.

B1: HumAb747-59 (antibody, human IgG1, V domains shown)
VH: EVQLVQSGAEVKKPGATVKLSCTASDFNIKDDYMHWVKQRPEQGLEWIGWIVPENGNTEYASKFQGRATITADTSTNTAYLELSSLRSEDTAVYYCTVYGDYWGQGTTVTVSS
VL: DIQMTQSPSSLSASVGDRVTITCRASQEISGYLSWLQQKPGGAIKRLIYAASTLDSGVPSRFSGSRSGSDYTLTISSLQPEDFADYYCLQYASYPLTFGQGTKLELK
notes: humanized mAb747; human IgG1/kappa constant domains
B2: D1-70-IgG (antibody, V domains shown)
VH: EVQLVQSGAEVKKPGASVKVSCKASGFNIKDDYMHWVRQAPGQGLEWIGWIVPRNGNTMYASKFQGRVTITADTSINTAYMELSRLRSDDTAVYYCTVYGDYWGQGTTVTVSS
VL: B1 VL with T22N, G41E, A43T, S56L, D85T, Q100G, L104V, L106I
notes: human IgG1/kappa constant domains
B3: HumAb747-60 (antibody, human IgG1, V domains shown)
VH: B1 VH with E46D, R67K
VL: B1 VL
notes: as for B1
B4: mAb742 (antibody, V domains shown)
VH: QGQLQQSGAELVRPGASVTLSCKASGYTFNDYEMHWVKQTPVHGLEWIGAIDPETGGTAYNQKFKGKAILTADKSSSTAYMELRSLTSEDSAVYYCIRWGSTVFPYWGQGTLVTVS
VL: DGVLTQTPLSLPVNIGDQASISCKSTKSLLNSDGFTYLDWYLQKPGQSPQLLIYLVSNRFSGVPDRFSGSGSGTDFTLKISRVEAEDLGVYYCFQSNYLPWTFGGGTKLEIK
notes: murine hybridoma anti-LAG-3 mAb
B5: mAb744 (antibody, V domains shown)
VH: B4 VH with G2V, A16T, N30T, V37M, E54A, E82D, L83F, S101T
VL: B4 VL with G2V
notes: murine hybridoma anti-LAG-3 mAb; also called rnAb744
B6: mAb748 (antibody, V domains shown)
VH: EVQMQQSGAELVRPGASVKLSCTVSGFNIKDDYMHWVKQRPEQGLEWIGWIDPENGDTEYASKFQGKATITADTSSNTAYLQLNSLTSEDTAVYYCTYFDYWGQGTTLTVSS
VL: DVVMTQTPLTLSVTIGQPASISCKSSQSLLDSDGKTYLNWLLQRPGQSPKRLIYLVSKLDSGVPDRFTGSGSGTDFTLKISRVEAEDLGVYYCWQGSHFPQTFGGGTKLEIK
notes: as for B4

What was measured:
[1] = target: T1, recombinant human LAG-3-his protein (Novoprotein) (human, UniProt P18627 23-450); experiment: BLI Octet, Ab on AHC sensor, huLAG-3-his; test group 4
T1 construct: Bought; also called huLAG-3; not shown: His tag
T1 sequence (looked up): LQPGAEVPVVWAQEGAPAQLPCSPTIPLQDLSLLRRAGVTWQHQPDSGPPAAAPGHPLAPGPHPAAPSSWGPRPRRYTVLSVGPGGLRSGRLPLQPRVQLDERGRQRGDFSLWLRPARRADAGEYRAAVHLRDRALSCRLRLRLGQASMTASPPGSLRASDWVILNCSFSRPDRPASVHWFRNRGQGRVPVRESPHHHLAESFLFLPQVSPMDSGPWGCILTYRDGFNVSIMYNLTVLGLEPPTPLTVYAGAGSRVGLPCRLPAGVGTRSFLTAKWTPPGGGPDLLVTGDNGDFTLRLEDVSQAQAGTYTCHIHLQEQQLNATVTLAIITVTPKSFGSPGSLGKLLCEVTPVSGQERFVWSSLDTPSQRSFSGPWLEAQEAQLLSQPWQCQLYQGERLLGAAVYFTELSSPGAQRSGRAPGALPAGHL
Procedure: (§1) All 18 humanized antibodies (Table 34) and a chimeric antibody having the parental murine VH and VL domains (mAb747c) were ranked by dissociation rate constant (koff). Briefly, antibodies were characterized for affinities and binding kinetics by Octet®RED96 biolayer interferometry (Pall ForteBio LLC). Antibodies were captured by Anti-hIgG Fc Capture (AHC) Biosensors (Pall) at a concentration of 100 nM for 30 seconds. Sensors were then dipped into running buffer (1× pH7.2 PBS, 0.05% Tween 20, 0.1% BSA) for 60 seconds to check baseline. Binding was measured by dipping sensors into a single concentration of recombinant human LAG-3-his protein (Novoprotein). Dissociation was followed by dipping sensors into running buffer for 1200 seconds. The association and dissociation curves were fitted to a 1:1 Langmuir binding model using FortéBio Data Analysis software (Pall). In each test group, the off-rates of antibodies were able to be compared with that of mAb747c. The off-rate ratios were calculated by the off-rate of antibody to that of mAb747c of its group and were compared all together. The lower the ratio was, the higher was the affinity of the antibody.

[2] = target: T1, recombinant human LAG-3-his protein …; experiment: BLI Octet, Ab on AHC sensor, huLAG-3-his; test group 2
Procedure: as §1, with “9” for “18”, “25)” for “34)”, “Octet RED96” for “Octet®RED96”, “FortéBio” for “ForteBio”, “Anti-HIgG” for “Anti-hIgG”, “(Pall).” for “(Pall). In each test group, the off-rates of antibodies were able to be compared with that of mAb747c. The off-rate ratios were calculated by the off-rate of antibody to that of mAb747c of its group and were compared all together. The lower the ratio was, the higher was the affinity of the antibody.”
The seven Fab clones were converted to full IgG proteins. Briefly, the VH and VL genes were produced synthetically and then cloned into vectors containing coding sequences for the human IgG1 and human kappa constant domains, respectively. The heavy chain and cognate light chain plasmids were co-transfected into HEK 293E cells, individually. After approximately six days of post-transfection cell culture, the supernatants were harvested and subjected to Protein A affinity chromatography. The affinity of purified antibodies was ranked by Octet® RED96 biolayer interferometry (see, Example 9.1, supra).

[3] = target: T2, human LAG-3 expressed on cells (human, UniProt P18627 23-525); experiment: FACS, HEK 293F huLAG-3 cells
T2 construct: whole, on cells; also called HEK 293F cells expressing human LAG-3; T hybridoma-huLAG-3 cells
T2 sequence (looked up): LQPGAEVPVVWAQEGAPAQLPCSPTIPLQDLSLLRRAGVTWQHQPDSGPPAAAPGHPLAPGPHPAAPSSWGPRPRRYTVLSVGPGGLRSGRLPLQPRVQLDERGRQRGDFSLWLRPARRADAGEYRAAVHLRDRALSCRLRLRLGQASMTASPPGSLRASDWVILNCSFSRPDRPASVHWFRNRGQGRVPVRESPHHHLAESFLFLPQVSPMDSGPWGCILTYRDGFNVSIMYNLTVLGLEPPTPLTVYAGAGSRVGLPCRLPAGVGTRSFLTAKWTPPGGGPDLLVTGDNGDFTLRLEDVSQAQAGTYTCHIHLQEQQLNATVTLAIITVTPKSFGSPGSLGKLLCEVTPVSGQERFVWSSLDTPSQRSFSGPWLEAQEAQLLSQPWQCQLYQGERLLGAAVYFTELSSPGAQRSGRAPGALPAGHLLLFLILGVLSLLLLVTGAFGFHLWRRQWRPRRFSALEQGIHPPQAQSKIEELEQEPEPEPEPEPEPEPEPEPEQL
Procedure: (§2) FAGS analysis was performed using methods similar to Example 1.4, above, except that stable HEK 293F cell lines expressing either human LAG-3 cynomolgus LAG-3 were used. LAG-3 expressing cells were charged at 2×10⁴ cell per well into 96-well assay round-bottomed assay plates (Cat. No. 3799; Corning) and stained with purified anti-LAG-3 antibodies. LAG-3 antibodies were detected with AlexaFluor® Donkey anti-Mouse Ig (H+L) Highly Cross-Adsorbed Secondary Antibody (Cat. No. A21202; Invitrogen), and cell fluorescence was monitored using a flow cytometer. The data were processed by GraphPad software, and EC50 values were calculated.

[4] = target: T3, human LAG-3 ECD/Fc fusion protein (human); experiment: FACS RBA, huLAG-3 ECD/Fc on Raji; competitor MHC Class II
T3 construct: also called HuLAG-3 ECD/Fc
Procedure: Supernatants displaying LAG-3 specific activity were tested for the ability to block LAG-3 receptor binding to MHC Class II. Raji human B cell lymphoblasts express high levels of MCH Class II and were used as binding targets for LAG-3 ECD/Fc proteins described above. Briefly, Raji cells were harvested and resuspend in FACS buffer and plated in 96-well plates (2×10⁵ cells/well). Anti-LAG-3 hybridoma supernatants were mixed with soluble LAG-3 ECD/Fc and the mixture was added to wells at a final volume of 100 μl/well. After adding the mixture to cells, the plates were incubated at room temperature for 30 minutes. After washing twice with PBS, the cells were incubated with anti-human IgG Alexa Fluor® 488 secondary antibody at 4° C. for 1 hour, washed twice with PBS, then fluorescence was measured on a flow cytometer.
Purified anti-LAG-3 antibodies also were tested in a RBA in the same manner as described in Example 7.3. Antibodies were also tested in an antigen-specific T cell activation assay, as follows: A huLAG-3 expressing murine T hybridoma cell line was generated to order by ChemPartner (Shanghai, CN). Mouse splenocytes from the same strain of mice were used as effector cells. The hybridoma expressing the huLAG-3 receptor protein is capable of binding to MHC Class II-positive mouse splenocytes, with inhibitory effect via engagement of Class II. The assay tests for anti-LAG-3 antibody-mediated reversal of the inhibitory effect, as measured by increased production of IL-2. Mouse spleenocytes were harvested from 6-8 week-old female C57BL/6 mice, red blood cells were lysed using Red Blood Cell Lysis Buffer (Sigma-Aldrich; R7757) according to the maker's instructions. Next, 50 μl T hybridoma-huLAG-3 cells (2×10⁶ cells/ml) were seeded in each well of a 96-well culture plate, and then a series of anti-LAG-3 monoclonal antibodies in solution at 50 μl/well were added and incubated at 37° C. for 30 min. Mouse splenocytes (4×10⁶ cells/ml) and the antigen (20 μg/ml) were mixed and incubated at 37° C. for 30 min. The mixture (100 μl/well) was added into each well that was already seeded with T hybridoma-huLAG-3 cells and anti-LAG-3 mAbs. The mixture of antibodies, T hybridoma-huLAG-3 cells, mouse splenocytes, and the antigen was cultured for 3 days.

[5] = target: T4, cynomolgus LAG-3 expressed on HEK 293F cells (cynomolgus); experiment: FACS, HEK 293F cynoLAG-3 cells
T4 construct: whole, on cells
Procedure: as §2

[6] = target: T2, human LAG-3 expressed on cells; experiment: cell-based or functional assay
[7] = target: T3, human LAG-3 ECD/Fc fusion protein; experiment: ELISA, coated huLAG-3 ECD/Fc
Procedure: The supernatants of hybridoma clones were primarily screened by ELISA. Briefly, 50 μl/well of […] human LAG-3 ECD/Fc in NaHCO₃ were directly coated in each well of 96-well plate overnight. Plates were washed 3 times with 1×PBST, 300 μl per well. After blocking with 1% BSA in PBST at 250 μl per well and incubating at room temperature for 1 hour, the hybridoma supernatants were added at 50 μl per well and incubated at 37° C. for 1 hour. After washing, an HRP-linked goat anti-mouse IgG Fc secondary antibody (Cat. No. A0168, Sigma) was added at 100 μl/well and the plates were incubated at room temperature for 1 hour. TMB reagent (InnoReagents) was used to detect and develop the ELISA signal at 100 μl/well for 15 minutes, the reaction was stopped with 1 Normal HCL. The plates were read with a plate reader (SpectraMax® M5e, Molecular Devices, USA) at a wavelength of 450 nm. The ELISA-positive antibody producer clones were further verified by FACS analysis using methods similar to Example 1.4, above, except that stable HEK 293F cell lines expressing either human LAG-3 or cynomolgus LAG-3 were used. Hybridomas producing LAG-3 binding activity were selected and further characterized in a receptor blocking assay (RBA).
A binding ELISA was performed in the same way as described in Example 7.2 above. Each purified antibody was 10-fold serially diluted. After blocking of a 96-well assay plate with wells containing immobilized LAG-3 ECD/Fc fusion protein targets, the purified antibody samples with diluted concentrations were added to wells of the assay plate. The HRP-linked anti-mouse IgG antibody (A0168, Sigma) and TMB reagent were used to detect and develop the ELISA signal, which were read on a SpectraMax M5e plate reader at wavelength of 450 nm. Curves were fitted using GraphPad software, and EC50 values were calculated. Similarly, a RBA was also performed as described in Example 7.3 with titrated, purified antibodies, and maximum inhibition percentages and IC50 values were determined.

| Binder | koff [1] | off-rate ratio to that of mAb747c [1] | koff [2] | off-rate ratio to that of mAb747c [2] | EC50 [3] | Max-MFI [3] | IC50 [4] | Max. Inhib. (%) [4] | EC50 [5] | Max-MFI [5] | Max IL-2 [6] | EC50 [7] |
| --- | --- | --- | --- | --- | --- | --- | --- | --- | --- | --- | --- | --- |
| B1 | 0.0012 s⁻¹ | 226% | – | – | – | – | – | – | – | – | – | – |
| B2 | – | – | 0.0026 s⁻¹ | 160% | – | – | – | – | – | – | – | – |
| B3 | 0.00081 s⁻¹ | 153% | – | – | – | – | – | – | – | – | – | – |
| B4 | – | – | – | – | 2.8 nM | 103 MFI | 3.84 nM | 96.5% | 56.4 nM | 48.5 MFI | 733 pg/mL | 0.22 nM |
| B5 | – | – | – | – | 9.5 nM | 135 MFI | 10.8 nM | 96.5% | 67 nM | 37.8 MFI | 612 pg/mL | 0.19 nM |
| B6 | – | – | – | – | 13.4 nM | 73.1 MFI | 4.8 nM | 96.1% | 79.6 nM | 31.9 MFI | 539 pg/mL | 0.24 nM |
